Source: article PMC5343089, “^1H, ^15N, ^13C backbone resonance assignments of human soluble catechol O-methyltransferase in complex with S-adenosyl-L-methionine and 3,5-dinitrocatechol” (Biomolecular Nmr Assignments, 2016)

Target: the molecule itself
Assay: SEC + native gel or EMSA + other: mass spectrometry; Superdex 75 26/60, 50 mM Tris-HCl pH 7.5, 50 mM NaCl, 10 mM DTT, 4 °C; two separated peaks; native gel electrophoresis and mass spectrometry not shown

B1: human soluble catechol O-methyltransferase (enzyme, UniProt P21964-2 1-221, looked up)
chain: QGDTKEQRILNHVLQHAEPGNAQSVLEAIDTYCEQKEWAMNVGDKKGKIVDAVIQEHQPSVLLELGAYCGYSAVRMARLLSPGARLITIEINPDCAAITQRMVDFAGVKDKVTLVVGASQDIIPQLKKKYDVDTLDMVFLDHWKDRYLPDTLLLEECGLLRKGTVLLADNVICPGAPDFLAHVRGSSCFECTHYQSFLEYREVVDGLEKAIYKGPGSEAGP
notes: Catechol O-methyltransferase, human, soluble isoform (S-COMT), EC 2.1.1.6; valine at the polymorphic position 108; 233 residues with the 12-residue tag, so 221 residues of S-COMT; Q belongs to the ENLYFQG site; 2H,15N,13C-labelled protein; Val108 allele; also called S-COMT; human S-COMT; source: E. coli BL21(DE3), pET21a, purified (His-Trap Ni-Sepharose, Superdex 75 size exclusion)
stoichiometry N: 2
